Reference: patent publication US20240190989A1 (BEIGENE SWITZERLAND, published 2024)
Where “and” joins values, the source holds several entries; their conditions need not be identical. Equal entries are not always repeated.

Legend:
[1] = biological target: T1, full-length human CD137 on cells (Hut78/huCD137, HEK293 transfectants, JK-NFKB-CD137) (human, UniProt Q07011 24-255); assay: FACS on HuT78/CD137 cells
T1 construct: also called native CD137; TNFRSF9

[2] = biological target: T2, full-length human CEA on cells (MKN45, LOVO, L929/huCEA, CT26/CEA, CT26-OS8-CEA) (human, UniProt P06731 35-685); assay: FACS on CT26-OS8-CEA cells
T2 construct: also called CEACAM5; native CEA
T2 sequence: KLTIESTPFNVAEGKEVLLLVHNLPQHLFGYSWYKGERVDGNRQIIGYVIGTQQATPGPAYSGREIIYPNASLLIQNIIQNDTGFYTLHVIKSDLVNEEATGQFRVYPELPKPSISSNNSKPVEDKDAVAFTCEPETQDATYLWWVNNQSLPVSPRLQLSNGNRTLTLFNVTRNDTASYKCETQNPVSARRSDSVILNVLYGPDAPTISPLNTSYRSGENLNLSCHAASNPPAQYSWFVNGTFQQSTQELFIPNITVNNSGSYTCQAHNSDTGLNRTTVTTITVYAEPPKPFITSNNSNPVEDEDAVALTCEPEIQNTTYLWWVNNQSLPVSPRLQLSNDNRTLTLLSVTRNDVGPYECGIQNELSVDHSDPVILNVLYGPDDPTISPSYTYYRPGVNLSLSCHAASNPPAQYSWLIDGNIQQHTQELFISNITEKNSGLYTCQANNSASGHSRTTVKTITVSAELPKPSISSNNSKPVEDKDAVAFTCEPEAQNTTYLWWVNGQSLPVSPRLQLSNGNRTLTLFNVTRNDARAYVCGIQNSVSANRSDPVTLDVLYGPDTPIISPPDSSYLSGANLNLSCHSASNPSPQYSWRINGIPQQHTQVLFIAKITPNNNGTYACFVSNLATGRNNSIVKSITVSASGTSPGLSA

human CD137 ECD-mIgG2a [3] = biological target: T3, human CD137 ECD-mIgG2a (human); assay: SPR, Human CD137
T3 construct: ECD 24-183 of huCD137 fused to mouse IgG2a Fc; also called huCD137-mIgG2a; huCD137

[4] = biological target: T4, mouse CD137 (recombinant protein, SPR) (mouse, UniProt P20334 24-187, limits assumed); assay: SPR
T4 construct: also called murine CD137
T4 sequence (looked up): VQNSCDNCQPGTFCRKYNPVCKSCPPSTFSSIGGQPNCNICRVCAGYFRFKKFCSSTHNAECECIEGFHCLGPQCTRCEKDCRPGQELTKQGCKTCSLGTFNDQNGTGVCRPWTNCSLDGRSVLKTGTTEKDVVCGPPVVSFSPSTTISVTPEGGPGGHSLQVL

[5] = biological target: T5, soluble human CEA, amino acids 1-687 of huCEA with C-terminal 6xHis tag (human, UniProt P06731 35-687); assay: SPR, Human CEA
T5 construct: also called sCEA; soluble huCEA
T5 sequence: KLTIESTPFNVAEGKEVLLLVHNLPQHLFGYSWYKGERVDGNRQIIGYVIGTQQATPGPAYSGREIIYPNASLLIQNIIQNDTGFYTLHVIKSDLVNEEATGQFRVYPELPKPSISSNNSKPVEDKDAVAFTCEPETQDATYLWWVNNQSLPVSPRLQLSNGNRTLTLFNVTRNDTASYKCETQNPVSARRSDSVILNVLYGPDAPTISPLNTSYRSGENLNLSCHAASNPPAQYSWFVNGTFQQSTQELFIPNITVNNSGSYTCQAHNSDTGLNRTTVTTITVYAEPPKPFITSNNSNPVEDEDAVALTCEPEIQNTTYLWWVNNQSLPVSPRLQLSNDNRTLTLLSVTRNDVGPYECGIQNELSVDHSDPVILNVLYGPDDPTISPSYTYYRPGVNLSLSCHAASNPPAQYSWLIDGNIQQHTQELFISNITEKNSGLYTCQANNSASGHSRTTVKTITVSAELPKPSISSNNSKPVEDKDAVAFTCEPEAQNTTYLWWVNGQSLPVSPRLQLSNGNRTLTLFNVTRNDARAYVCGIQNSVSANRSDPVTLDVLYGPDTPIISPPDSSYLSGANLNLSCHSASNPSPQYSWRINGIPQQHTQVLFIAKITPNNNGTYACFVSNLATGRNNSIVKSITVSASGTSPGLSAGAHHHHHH

[6] = biological target: T5, soluble human CEA, amino acids 1-687 of …; assay: antigen ELISA on huCEA (CEA/His), two batches of BE-146 [panel A]
[7] = biological target: T6, cynoCEA (Cat. CE5-C52H5, Acrobiosystem) (cynomolgus monkey); assay: SPR, Monkey CEA
T6 construct: Bought protein; also called Monkey CEA

human CD137 ECD-mIgG2a [8] = biological target: T3, human CD137 ECD-mIgG2a; assay: antigen ELISA on huCD137-mIgG2a [panel B]
[9] = biological target: T1, full-length human CD137 on cells …; assay: cell-based or functional assay
cyno CD137 ECD-mIgG2a = biological target: T7, cyno CD137 ECD-mIgG2a (monkey (Macaca mulatta gene; called …); assay: SPR, Monkey CD137
T7 chain: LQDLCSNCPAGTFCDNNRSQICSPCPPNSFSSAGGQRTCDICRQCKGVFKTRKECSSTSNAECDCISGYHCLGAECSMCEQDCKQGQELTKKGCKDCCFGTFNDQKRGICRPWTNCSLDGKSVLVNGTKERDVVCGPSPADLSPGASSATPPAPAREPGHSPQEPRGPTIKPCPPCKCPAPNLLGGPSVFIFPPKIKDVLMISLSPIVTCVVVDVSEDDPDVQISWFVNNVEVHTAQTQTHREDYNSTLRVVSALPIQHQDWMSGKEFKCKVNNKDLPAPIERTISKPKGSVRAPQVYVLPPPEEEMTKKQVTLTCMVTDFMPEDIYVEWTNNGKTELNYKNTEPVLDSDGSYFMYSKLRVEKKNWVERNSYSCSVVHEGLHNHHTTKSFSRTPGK

T1 sequence (Q07011 24-255 limits assumed): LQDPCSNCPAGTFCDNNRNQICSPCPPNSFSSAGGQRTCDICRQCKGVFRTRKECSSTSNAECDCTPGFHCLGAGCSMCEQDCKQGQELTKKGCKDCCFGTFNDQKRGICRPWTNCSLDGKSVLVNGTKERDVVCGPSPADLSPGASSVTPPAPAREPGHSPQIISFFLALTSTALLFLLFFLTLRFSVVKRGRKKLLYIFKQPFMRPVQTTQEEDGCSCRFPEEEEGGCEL

B1: BE-146 (CEAxCD137 multispecific antibody) (bispecific antibody, human IgG1, kappa)
heavy: QVQLVQSGAEVKKPGASVKVSCKASGYIFTSYYLHWVRQAPGQGLEWIGYINPQTGKTSYAQKFQGRVTMTRDTSTSTVYMELSSLRSEDTAVYYCAREYGNYNYPLDYWGQGTLVTVSSASTKGPSVFPLAPSSKSTSGGTAALGCLVKDYFPEPVTVSWNSGALTSGVHTFPAVLQSSGLYSLSSVVTVPSSSLGTQTYICNVNHKPSNTKVDKKVEPKSCDKTHTCPPCPAPPAAGPSVFLFPPKPKDTLMISRTPEVTCVVVDVSHEDPEVKFNWYVDGVEVHNAKTKPREEQYNSTYRVVSVLTVLHQDWLNGKEYKCKVSNKALAAPIEKTISKAKGQPREPQVYTLPPSREEMTKNQVSLTCLVKGFYPSDIAVEWESNGQPENNYKTTPPVLDSDGSFFLYSKLTVDKSRWQQGNVFSCSVMHEALHNHYTQKSLSLSPGKGGGGSEVQLLESGGGLVQPGGSLRLSCAASGFTVSAEDVGWVRQAPGKGLEWVSAILDKGGSTYYAESVKGRFTISRDNAKNTLYLQMSSLRAEDTAVYYCARIVYHAGGGVTFDTRGQGTQVTVSS
light: DIQMTQSPSSLSASVGDRVTITCRASENQYGYLAWYQQKPGKVPKLLIYNYKNLVEGVPSRFSGSGSGTDFTLTISSLQPEDVATYYCQHHLGTPYTFGQGTKVEIKRTVAAPSVFIFPPSDEQLKSGTASVVCLLNNFYPREAKVQWKVDNALQSGNSQESVTEQDSKDSTYSLSSTLTLSKADYEKHKVYACEVTHQGLSSPVTKSFNRGEC
notes: Module ratio 2:2, Fc null version of huIgG1; copies: 2 + 2
B1 was tested, and the EC50 [1] was 2.26 µg/mL and 12.9 nM, the EC50 [2] was 1.53 µg/mL and 8.75 nM and the Kd (human CD137 ECD-mIgG2a [3]) was 36.2 nM. The koff (human CD137 ECD-mIgG2a [3]) was 0.00469 s⁻¹, the kon (human CD137 ECD-mIgG2a [3]) was 130000 M⁻¹ s⁻¹ and the binding result [4] was “no binding”. It also gave a Kd [5] of 3 nM, a koff [5] of 0.000295 s⁻¹ and a kon [5] of 98500 M⁻¹ s⁻¹. The “EC50 (read off the curve)” value [6] was ~0.07 µg/mL, the Kd [7] was 11.4 nM and the koff [7] was 0.000717 s⁻¹. The kon [7] was 63000 M⁻¹ s⁻¹, the “EC50 (read off the curve)” value (human CD137 ECD-mIgG2a [8]) was ~0.08 µg/mL and the “NF-kB luciferase reporter in JK-NFKB-CD137 cells co-cultured with CT26-OS8-CEA, EC50” value [9] was 0.51 µg/mL and 2.91 nM and 0.56 µg/mL and 3.2 nM. It also gave a Kd (cyno CD137 ECD-mIgG2a) of 15.9 nM, a koff (cyno CD137 ECD-mIgG2a) of 0.00266 s⁻¹ and a kon (cyno CD137 ECD-mIgG2a) of 167000 M⁻¹ s⁻¹.
